Source: patent publication EP4592322A1

Target: integrin alpha(IIb)beta(3) (UniProt P08514)
Assay: cell-based or functional assay

B1: trimucrin variant RR (protein)
chain: EAGEECDCGSPENPCCDAATCKLRPGAQCAEGLCCDQCRFKKKRTICRRAKGDRRDDRCTGQSADCPRNRLYG
IC50: platelet aggregation: 52.5 nM | Ratio (RR/corresponding protein) of IC50 for platelet aggregation (ratio (RR/corresponding protein)): 1
